For 1 molecule, Kd results are on record in publication PMC5716252, “Heterologous expression, purification and function of the extracellular domain of human RANK” (BMC Biotechnology, 2017).

The test addresses T1, RANK-N, soluble form of the extracellular domain of human RANK (human, UniProt Q9Y6Q6 29-213, N-glycosylated (28 kDa band shifts to about 21 kDa with PNGase F); predicted sites Asn 105 and Asn 174, not verified).
T1 construct: Codon-optimised gene cloned into pPIC9K cut with XhoI and NotI; no tag is named; also called recombinant RANK-N
T1 sequence (looked up): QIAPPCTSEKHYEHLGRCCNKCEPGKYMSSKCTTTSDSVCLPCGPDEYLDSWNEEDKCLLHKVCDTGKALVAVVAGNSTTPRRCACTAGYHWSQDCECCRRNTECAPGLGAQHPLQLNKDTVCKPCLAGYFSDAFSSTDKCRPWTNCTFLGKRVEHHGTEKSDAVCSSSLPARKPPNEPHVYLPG
The test can be described thus: SPR; Biacore T100; RANKL amine-coupled to a CM5 chip; RANK-N (32.5 to 1000 nM) injected at 30 μl/min, 25 °C, contact 210 s, dissociation 400 s; running buffer 3 mM EDTA, 150 mM NaCl, 10 mM HEPES, 0.05% Surfactant P20; steady-state responses fit to the Hill equation. The settings on record: both partners purified. For orientation: In SPR one partner is held on a chip, and binding of the other changes the refractive index at the surface.

Usually Kd stands for a measure of binding affinity in units of concentration.

B1: RANKL (R&D Systems, 462-TEC-010/CF) (ligand, UniProt O35235 139-316, looked up)
chain: FSGAPAMMEGSWLDVAQRGKPEAQPFAHLTINAASIPSGSHKVTLSSWYHDRGWAKISNMTLSNGKLRVNQDGFYYLYANICFRHHETSGSVPTDYLQLMVYVVKTSIKIPSSHNLMKGGSTKNWSGNSEFHFYSINVGGFFKLRAGEEISIQVSNPSLLDPDQDATYFGAFKVQDID
notes: RANKL, recombinant protein bought from R&D Systems, catalogue 462-TEC-010/CF; As far as I recall, catalogue 462-TEC is R&D's recombinant mouse TRANCE/RANKL (soluble extracellular part, carrier-free); source: bought: R&D Systems (462-TEC-010/CF)
Take B1: the Kd is 2620 nM.
